Measured values: paper PMC10146638 (Viruses, 2023)
No end group written: not given here.

Target: knob domain of the FAdV-4 Fiber2 protein (amino acids 279–479) (fowl adenovirus serotype 4 (FAdV-4))
Assay: SPR
Details: not given

Molecule	Kd
QWKIHR [peptide P6]	2780 nM
QWKIEK [peptide P5]	1200 nM
MQKHEW [peptide P25]	1370 nM
MQKHCG [peptide P27]	572 nM
MQKKFI [peptide P30]	907 nM
QWKARV [peptide P14]	24000 nM
WWHEKE [peptide number 15 (P15; WWHEKE)]	1440 nM
QWKKHI [peptide P1]	6160 nM
QWKNCK [peptide P10]	1020 nM

Target: knob domain of the FAdV-4 Fiber2 protein (amino acids 279–479) (fowl adenovirus serotype 4 (FAdV-4))
Assay: AUC
Details: not given

Molecule	stoichiometry N
knob domain of the FAdV-4 Fiber2 protein (amino acids 279–479) (domain or fragment)	3

Target: knob domain of the FAdV-4 Fiber2 protein (amino acids 279–479) (fowl adenovirus serotype 4 (FAdV-4))
Assay: crystal structure
Details: not given

Molecule	stoichiometry N
knob domain of the FAdV-4 Fiber2 protein (amino acids 279–479) (domain or fragment)	3

Target: knob domain of the FAdV-4 Fiber2 protein (amino acids 279–479) (fowl adenovirus serotype 4 (FAdV-4))
Assay: SDS-PAGE without boiling
Details: not given

Molecule	stoichiometry N
knob domain of the FAdV-4 Fiber2 protein (amino acids 279–479) (domain or fragment)	3

Target: knob domain of the FAdV-4 Fiber2 protein (Fowl aviadenovirus 4, UniProt A0A1B1SKZ0)
Assay: Surface plasmon resonance assay (Biacore X100, CM5 chip)
Format: binding, fowl adenovirus serotype 4 (FAdV-4)
Details: not given

Molecule	Kd
QWKKHI [Peptide P1, QWKKHI]	6160 nM
MQKHEW [Peptide P25, MQKHEW]	1370 nM
QWKNCK [Peptide P10, QWKNCK]	1020 nM
MQKHCG [Peptide P27, MQKHCG]	572 nM
QWKIHR [Peptide P6, QWKIHR]	2780 nM
MQKKFI [Peptide P30, MQKKFI]	907 nM
QWKARV [Peptide P14, QWKARV]	24000 nM
QWKIEK [Peptide P5, QWKIEK]	1200 nM

System: LMH cells
Assay: not given
Details: 0-200 μM, 24, 48 and 72 h incubation, vs untreated group

Molecule	cytotoxic effect (CCK-8)
WWHEKE [Peptide P15, WWHEKE]	no cytotoxic effect

Target: knob domain of the FAdV-4 Fiber2 protein (amino acids 279–479) (fowl adenovirus serotype 4 (FAdV-4))
Assay: SEC; Superdex200 Increase 10/300 GL; protein eluted at 14.78 mL
Details: not given

Molecule	stoichiometry N
knob domain of the FAdV-4 Fiber2 protein (amino acids 279–479) (domain or fragment)	3
